The test has as its target T1, human CD19 on CD19+ cells (Raji, Daudi, Ramos, SU-DHL-10, Nalm6) (human, UniProt P15391 20-556).
T1 construct: whole, on cells; also called B-Lymphocyte Surface Antigen B4
T1 sequence (looked up): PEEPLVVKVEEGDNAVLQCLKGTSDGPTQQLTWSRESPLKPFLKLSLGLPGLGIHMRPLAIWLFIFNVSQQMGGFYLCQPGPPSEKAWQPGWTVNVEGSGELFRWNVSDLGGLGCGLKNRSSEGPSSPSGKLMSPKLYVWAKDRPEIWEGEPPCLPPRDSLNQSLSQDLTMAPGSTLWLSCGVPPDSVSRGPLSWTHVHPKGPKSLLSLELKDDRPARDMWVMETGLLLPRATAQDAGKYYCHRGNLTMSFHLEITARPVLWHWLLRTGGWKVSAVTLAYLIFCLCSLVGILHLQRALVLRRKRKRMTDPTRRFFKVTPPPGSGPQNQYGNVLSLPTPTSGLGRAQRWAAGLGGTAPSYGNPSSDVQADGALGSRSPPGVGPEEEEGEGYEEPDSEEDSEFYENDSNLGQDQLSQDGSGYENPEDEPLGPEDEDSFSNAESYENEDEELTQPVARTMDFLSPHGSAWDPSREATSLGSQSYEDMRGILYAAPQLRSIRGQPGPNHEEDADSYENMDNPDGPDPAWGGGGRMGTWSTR
Put plainly: cell-binding assay on CD19+ cells.

Where a chain is given by its changes, count along the chain named.

B1: anti-CD19 heavy chain-only antibody (UniAb) clone ID 370083 (antibody, V domains shown)
VH: QVQLVESGGGLVKPGGSLRLSCAASGFTFSDYYMSWIRQAPGKGLEWVSYMSSSGSTIYYADSVKGRFTISRDNAKNSLYLQMTSLRAEDTAVYYCARGGIAATGTWGQGTLVTVSS
notes: Heavy chain-only antibody with no light chain, tested as purified UniAb and detected with anti-human IgG; Only the VH is tied to the clone
Turning to B1, the binding result is recorded as “binds”.

B2: anti-CD19 heavy chain-only antibody (UniAb) clone ID 370034 (antibody, V domains shown)
VH: B1 VH with N77K, T84N, T104A
notes: Heavy chain-only antibody with no light chain, tested as purified UniAb and detected with anti-human IgG; Only the VH is tied to the clone; also called HCAb 370034
For B2, the binding result is listed as “binds”.

The values are drawn from patent publication US20240042032A1 (TENEOBIO, published 2024).
